Measured values as given in publication PMC12861664 (2025).

Molecular target: coxsackievirus B5 Faulkner strain, purified virus (wild type) (coxsackievirus B5 (CV-B5/Faulkner))
Experiment: SPR

B1: decay accelerating factor (DAF) protein with tag (receptor)
chain: DCGLPPDVPNAQPALEGRTSFPEDTVITYKCEESFVKIPGEKDSVICLKGSQWSDIEEFCNRSCEVPTRLNSASLKQPYITQNYFPVGTVVEYECRPGYRREPSLSPKLTCLQNLKWSTAVEFCKKKSCPNPGEIRNGQIDVPGGILFGATISFSCNTGYKLFGSTSSFCLISGSSVQWSDPLPECREIYCPAPPQIDNGIIQGERDHYGYRQSVTYACNKGFTMIGEHSIYCTVNNDEGEWSGPPPECRGKSLTSKVPPTVQKPTTVNVPTTEVSPTSQKTTTKTTTPNAQATRSTPVSRTTKHFHETTPNKGSGTTS
Work on B1 yielded a Kd of 5.69 nM.
